# Results from IntAct's records for PubMed 20473270.
# B1: Zinc finger HIT domain-containing protein 1 (Homo sapiens), O43257 (parent)
# chain: MVEKKTSVRSQDPGQRRVLDRAARQRRINRQLEALENDNFQDDPHAGLPQLGKRLPQFDDDADTGKKKKKTRGDHFKLRFRKNFQALLEEQNLSVAEGPNYLTACAGPPSRPQRPFCAVCGFPSPYTCVSCGARYCTVRCLGTHQETRCLKWTV
# Variants of: B1
# Details: with arp6_human ACTR6, Q9GZN1
# Sequence of arp6_human ACTR6, Q9GZN1 (Q9GZN1 whole entry): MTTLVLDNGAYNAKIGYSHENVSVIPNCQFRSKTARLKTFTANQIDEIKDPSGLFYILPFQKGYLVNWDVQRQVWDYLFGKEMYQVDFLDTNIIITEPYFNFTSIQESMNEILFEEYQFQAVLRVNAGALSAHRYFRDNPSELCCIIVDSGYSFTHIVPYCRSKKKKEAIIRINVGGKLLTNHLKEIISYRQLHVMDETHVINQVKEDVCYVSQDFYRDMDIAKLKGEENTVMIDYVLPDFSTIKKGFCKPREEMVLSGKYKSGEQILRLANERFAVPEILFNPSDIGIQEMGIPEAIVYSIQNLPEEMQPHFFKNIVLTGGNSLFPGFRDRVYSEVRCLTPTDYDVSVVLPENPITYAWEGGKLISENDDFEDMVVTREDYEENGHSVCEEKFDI
row,Variant,effect of a mutation on the interaction
1,T103A,disrupting interaction
2,T6A,disrupting interaction
3,T71A,disrupting interaction
4,T64A,disrupting interaction
